This note sets out measurements from PMC6959593.

The target of experiment [1] is VEGFR-2 of HUVECs (human (endogenous in HUVECs)) (UniProt P35968).
Experiment [2] shares this target. Kind of experiment: proximity ligation; Duolink in situ PLA on HUVECs treated with VEGF/CaD for 2 min, fixed in paraformaldehyde and permeabilized; goat anti-VEGF and rabbit anti-VEGFR2 antibodies overnight at 4°C; dots per cell counted with ImageJ.
Experiment [3] shares this target. The source holds these as a separate data set.

Sequence of UniProt P35968 (P35968 20-1356): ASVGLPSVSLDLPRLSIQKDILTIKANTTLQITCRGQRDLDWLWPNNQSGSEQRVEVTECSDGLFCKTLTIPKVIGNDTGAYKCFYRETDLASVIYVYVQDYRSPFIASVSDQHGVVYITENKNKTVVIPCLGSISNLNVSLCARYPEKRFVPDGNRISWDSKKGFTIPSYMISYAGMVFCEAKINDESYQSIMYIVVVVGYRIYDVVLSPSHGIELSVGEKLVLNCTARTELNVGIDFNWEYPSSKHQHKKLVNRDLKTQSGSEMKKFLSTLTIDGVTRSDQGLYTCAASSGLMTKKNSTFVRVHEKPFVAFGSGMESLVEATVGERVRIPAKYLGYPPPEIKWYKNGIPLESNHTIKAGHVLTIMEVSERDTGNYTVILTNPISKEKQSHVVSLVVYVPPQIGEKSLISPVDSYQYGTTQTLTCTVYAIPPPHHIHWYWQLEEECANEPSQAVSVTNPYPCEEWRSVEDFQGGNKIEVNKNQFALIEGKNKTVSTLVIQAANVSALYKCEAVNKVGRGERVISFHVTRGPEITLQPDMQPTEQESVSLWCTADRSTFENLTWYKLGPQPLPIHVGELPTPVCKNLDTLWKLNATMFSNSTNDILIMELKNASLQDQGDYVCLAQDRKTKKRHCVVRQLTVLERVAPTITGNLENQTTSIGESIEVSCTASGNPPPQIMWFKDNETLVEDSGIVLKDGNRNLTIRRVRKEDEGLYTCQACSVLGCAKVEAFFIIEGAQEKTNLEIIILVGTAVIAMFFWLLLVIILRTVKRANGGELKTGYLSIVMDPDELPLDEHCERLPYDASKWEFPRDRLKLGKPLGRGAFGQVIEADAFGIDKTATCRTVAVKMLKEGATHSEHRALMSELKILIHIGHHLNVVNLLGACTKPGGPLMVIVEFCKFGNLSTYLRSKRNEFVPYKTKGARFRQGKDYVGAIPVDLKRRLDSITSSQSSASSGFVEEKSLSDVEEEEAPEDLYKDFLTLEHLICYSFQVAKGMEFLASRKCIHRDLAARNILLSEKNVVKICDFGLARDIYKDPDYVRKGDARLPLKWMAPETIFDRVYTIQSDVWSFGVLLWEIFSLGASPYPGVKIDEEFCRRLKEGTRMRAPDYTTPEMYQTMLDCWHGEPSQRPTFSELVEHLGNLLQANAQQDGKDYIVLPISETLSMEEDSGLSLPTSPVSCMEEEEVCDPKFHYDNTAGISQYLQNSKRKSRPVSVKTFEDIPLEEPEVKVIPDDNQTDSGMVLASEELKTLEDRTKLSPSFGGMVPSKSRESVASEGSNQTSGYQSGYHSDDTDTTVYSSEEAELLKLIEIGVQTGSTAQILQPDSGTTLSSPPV

Turning to recombinant VEGF165 (ligand), the VEGF165 (25 ng/mL)-induced phosphorylation of VEGFR-2 in HUVECs (Western blot, 2 min), VEGF165 premixed with CaD (6-100 μM) for 60 min in experiment [1] is under 50%. Further, the decrease of the PLA signal in the presence of CaD in experiment [2] is 60%. In addition, the VEGF165 (25 ng/ml)-induced phosphorylation of VEGFR-2 in heparanase (HPSE, 0.5 μg/ml)-treated HUVECs, with CaD (100 μM), relative to VEGF alone (Western blot) in experiment [3] amounted to 50%.
